According to patent publication US20210395718A1, “NOVEL KETOSE 3-EPIMERASE” (NATIONAL UNIVERSITY CORPORATION KAGAWA UNIVERSITY, priority 2018, published 2021):

Legend:
Type in all cases: biochemical
[1] = Ketose 3-epimerase activity of crude enzyme (D-allulose to D-fructose, HPLC); conditions: crude recombinant enzyme
Experimental: The activity of an enzyme ketose 3-epimerase before purification was obtained by measuring the preparation amount of D-fructose with D-allulose as a substrate. More specifically, an enzymatic reaction solution composed of a 50 mM tris-HCl buffer (pH 7.5), 0.1 M D-allulose, an enzyme solution, and 2 mM magnesium chloride is reacted at 70° C. for 10 minutes. The reaction mixture is boiled for 2 minutes to terminate the reaction and the solution composition after the reaction is measured by HPLC. One unit of enzyme activity is defined as an enzyme amount that epimerizes D-allulose to prepare 1 μmol of D-fructose per minute under the above-described conditions. An enzyme unit for epimerization of D-fructose into D-allulose, which is a reverse reaction, is also measured under similar conditions and defined similarly.
For the measurement of the activity of a ketose 3-epimerase as a crude enzyme and a purified enzyme, an enzyme reaction was made by performing an experiment similar to Experiment 4. An enzyme reaction was made for 10 minutes under various conditions and an enzyme amount preparing 1 μmol of D-fructose from D-allulose per minute was defined as 1 unit. After the reaction, the reaction mixture was put in a boiling liquid for 3 minutes to terminate the reaction. After deionization treatment, the D-fructose thus prepared was measured by HPLC analysis. […]

[2] = Optimum reaction temperature / relative activity at various reaction temperatures; conditions: crude recombinant enzyme
Experimental: For the measurement of the activity of a ketose 3-epimerase as a crude enzyme and a purified enzyme, an enzyme reaction was made by performing an experiment similar to Experiment 4. An enzyme reaction was made for 10 minutes under various conditions and an enzyme amount preparing 1 μmol of D-fructose from D-allulose per minute was defined as 1 unit. After the reaction, the reaction mixture was put in a boiling liquid for 3 minutes to terminate the reaction. After deionization treatment, the D-fructose thus prepared was measured by HPLC analysis.
Reaction conditions are shown in Table 1 under which the reaction was made at various temperatures within from 50 to 80° C. to find an optimum temperature.

[3] = Thermal stability: residual activity after incubation at 60° C. for one hour; conditions: crude recombinant enzyme; activity at 60° C. (10 min reaction) = 100; unit not given
How it was run: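 Crude recombinant enzyme held 1 h at 60 °C in 50 mM tris-HCl pH 7.5 with 2 mM MgCl2, chilled 10 min on ice, then residual activity measured by the standard method. Expressed relative to activity at 60 °C under the 10-min optimum-temperature reaction conditions, set as 100.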

[4] = Ketose 3-epimerase activity ratio (T70/T50) at reaction temperature of 70° C. to 50° C.; conditions: crude recombinant enzyme; ratio of activity at 70° C. to activity at 50° C., 10 min reaction
How it was run: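 Crude recombinant enzyme activity measured at 70° C. and at 50° C. in 10-minute reactions under the optimum-temperature assay conditions. Value is the ratio of the two activities (T70/T50).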

[5] = activity at optimum temperature = 100

Total activity per 100 mL of culture liquid (optimum reaction temperature) [1]: 1201 U
Optimum enzyme reaction temperature ([2]; 10 min, 2 mM magnesium chloride, pH 7.5): 70° ° C.
B1: Mutant enzyme Sequence information 3: mutant having Sequence 3 (SEQ ID NO: 3), 78.5% amino acid sequence identity to Sequence 1 (protein)
chain: MNIGCHGLVWTGTFDADGIRLAVEKTKQAGFDLIEFPLMDPFSFDVAAAQAALAEHGLAVSASLGLSDETDITSSDPAVVAAGEALLLRAVDVLAELGGTHFCGVIYSAMKKYMDPVTPEGLASSRRTIARVADHAAERGVSVSLEVVNRYETNVLNTARQALAYLGEVDRPNLGIHLDTYHMNIEESDMFAPVLDAAPALRYVHIGESHRGYLGTGTVDFDTFFKALGRIGYDGPIVFESFSSAVVAPDLSRMLGIWRNLWTDNDELGAHANAYIRDKLVAVDSIRLH
Relative activity at 60° C. (%) [2, 5]: 75.8%
Relative activity at 70° C. (%) [2, 5]: 100.0%
Relative activity at 80° C. (%) [2, 5]: 31.2%
Residual activity after incubation at 60° C. for 1 hour [3]: 38.2
T70/T50 [4]: 2.11
